Results published in US20100129369A1 (Eli Lilly, published 2010).

Assays:
Human c-Met-Flis-Fc ECD [1] = target: T1, Human c-Met-Flis-Fc ECD (human); test: ELISA, coated ECD-Fc, antibody 77.160 ng/mL
T1 construct: also called human c-Met extracellular domain (ECD)-Fc-Flis fusion; Human cMet-ECD-Fc-Flis

RON-ECD-Fc [2] = target: T2, RON-ECD-Fc (human, UniProt Q04912 25-957); test: ELISA, coated ECD-Fc, antibody 77.160 ng/mL
T2 construct: extracellular domain; Bought reagent; not shown: Fc part of the bought fusion
T2 sequence (looked up): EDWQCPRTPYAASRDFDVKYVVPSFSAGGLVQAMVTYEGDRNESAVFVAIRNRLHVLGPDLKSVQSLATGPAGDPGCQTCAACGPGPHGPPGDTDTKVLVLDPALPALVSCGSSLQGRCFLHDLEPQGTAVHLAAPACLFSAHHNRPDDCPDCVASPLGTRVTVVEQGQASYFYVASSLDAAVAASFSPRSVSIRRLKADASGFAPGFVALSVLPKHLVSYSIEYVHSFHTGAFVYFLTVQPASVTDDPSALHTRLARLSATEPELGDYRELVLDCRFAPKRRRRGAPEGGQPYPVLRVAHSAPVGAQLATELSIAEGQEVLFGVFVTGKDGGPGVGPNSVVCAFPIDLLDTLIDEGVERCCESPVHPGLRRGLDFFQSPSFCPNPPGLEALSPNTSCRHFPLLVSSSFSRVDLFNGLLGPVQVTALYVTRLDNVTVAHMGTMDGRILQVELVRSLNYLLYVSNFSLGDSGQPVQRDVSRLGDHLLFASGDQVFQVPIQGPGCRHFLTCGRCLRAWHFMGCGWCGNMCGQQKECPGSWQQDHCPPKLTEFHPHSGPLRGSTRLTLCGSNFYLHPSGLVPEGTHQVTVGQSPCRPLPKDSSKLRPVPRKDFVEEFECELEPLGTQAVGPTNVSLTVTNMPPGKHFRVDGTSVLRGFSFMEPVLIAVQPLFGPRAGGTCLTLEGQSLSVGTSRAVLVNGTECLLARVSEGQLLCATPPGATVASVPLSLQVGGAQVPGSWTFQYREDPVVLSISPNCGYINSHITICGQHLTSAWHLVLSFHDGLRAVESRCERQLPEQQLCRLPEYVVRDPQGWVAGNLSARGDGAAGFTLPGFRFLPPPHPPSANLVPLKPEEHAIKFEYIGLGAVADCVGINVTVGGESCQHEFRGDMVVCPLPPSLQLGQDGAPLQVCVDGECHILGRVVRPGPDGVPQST

Human c-Met-Flis-Fc ECD [3] = target: T1, Human c-Met-Flis-Fc ECD; test: ELISA, coated ECD-Fc, antibody 0.060 ng/mL
Method: (§1) Wells of 96-well EIA/RIA high binding plates (Costar, #2592) are coated with 100 μL of 1 μg/mL human c-Met extracellular domain (ECD)-Fc-Flis fusion (SEQ ID NO:72), RON-ECD-Fc (R&D Systems, #1947-MS), or PlexinA2-ECD-Fc (Abnova, Taipei, Taiwan #H00005362-P01) in coating buffer (BioFX Labs, # COAT-1000-01) overnight at 4° C. […] After the plates are washed, 100 μL/well of substrate solution (BioFx, #TMBW-1000-01) are added and the plates are incubated for 10 min. at room temperature. 100 μL/well of stop solution (BioFx, # LSTP-1000-01) are added to stop the reaction. The colorimetric signals are developed and read at 450 nm using a SpectraMax 190 plate reader (Molecular Devices, Sunnyvale, Calif.). c-Met antibody binding to c-Met, RON and PlexinA2 ECDs is proportional to color signal production.

RON-ECD-Fc [4] = target: T2, RON-ECD-Fc; test: ELISA, coated ECD-Fc, antibody 0.060 ng/mL
Method: as §1

Human c-Met-Flis-Fc ECD [5] = target: T1, Human c-Met-Flis-Fc ECD; test: ELISA, coated ECD-Fc, antibody 0.000 ng/mL
Method: as §1

RON-ECD-Fc [6] = target: T2, RON-ECD-Fc; test: ELISA, coated ECD-Fc, antibody 0.000 ng/mL
Method: as §1

PlexinA2-ECD-Fc = target: T3, PlexinA2-ECD-Fc (human, UniProt O75051 35-1237); test: ELISA, coated ECD-Fc, antibody 0.000 ng/mL
T3 construct: extracellular domain; Bought reagent
T3 sequence (looked up): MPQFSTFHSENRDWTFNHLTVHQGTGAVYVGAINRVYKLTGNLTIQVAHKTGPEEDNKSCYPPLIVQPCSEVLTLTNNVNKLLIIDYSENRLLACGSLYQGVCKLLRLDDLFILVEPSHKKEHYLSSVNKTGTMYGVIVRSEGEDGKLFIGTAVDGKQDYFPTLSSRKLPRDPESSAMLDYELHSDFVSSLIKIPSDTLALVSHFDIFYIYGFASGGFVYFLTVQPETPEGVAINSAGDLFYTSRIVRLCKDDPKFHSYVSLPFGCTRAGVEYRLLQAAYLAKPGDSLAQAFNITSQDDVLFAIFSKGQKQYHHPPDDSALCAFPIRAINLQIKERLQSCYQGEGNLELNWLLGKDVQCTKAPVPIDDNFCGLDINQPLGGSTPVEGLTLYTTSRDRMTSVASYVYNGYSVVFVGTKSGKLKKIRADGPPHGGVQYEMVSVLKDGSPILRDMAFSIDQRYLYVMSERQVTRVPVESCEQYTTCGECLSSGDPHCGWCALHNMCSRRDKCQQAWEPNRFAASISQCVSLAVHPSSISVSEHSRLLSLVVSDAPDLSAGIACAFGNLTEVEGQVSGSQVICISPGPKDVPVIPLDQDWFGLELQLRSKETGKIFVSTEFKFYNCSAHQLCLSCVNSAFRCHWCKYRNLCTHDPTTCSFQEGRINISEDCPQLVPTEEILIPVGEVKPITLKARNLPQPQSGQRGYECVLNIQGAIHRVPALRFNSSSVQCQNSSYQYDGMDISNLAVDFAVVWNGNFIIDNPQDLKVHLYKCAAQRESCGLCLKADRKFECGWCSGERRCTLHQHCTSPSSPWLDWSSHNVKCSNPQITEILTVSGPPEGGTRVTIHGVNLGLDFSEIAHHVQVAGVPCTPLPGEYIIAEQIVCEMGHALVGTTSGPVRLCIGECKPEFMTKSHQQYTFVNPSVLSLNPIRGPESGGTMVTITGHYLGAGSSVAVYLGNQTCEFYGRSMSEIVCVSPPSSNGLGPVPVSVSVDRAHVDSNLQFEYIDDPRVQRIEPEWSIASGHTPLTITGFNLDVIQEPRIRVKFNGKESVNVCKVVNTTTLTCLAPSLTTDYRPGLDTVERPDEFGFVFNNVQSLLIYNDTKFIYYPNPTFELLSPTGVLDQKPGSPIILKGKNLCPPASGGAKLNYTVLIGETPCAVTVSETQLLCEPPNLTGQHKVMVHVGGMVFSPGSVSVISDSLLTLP
Method: as §1

T1 sequence (chain, as listed by the source limits assumed): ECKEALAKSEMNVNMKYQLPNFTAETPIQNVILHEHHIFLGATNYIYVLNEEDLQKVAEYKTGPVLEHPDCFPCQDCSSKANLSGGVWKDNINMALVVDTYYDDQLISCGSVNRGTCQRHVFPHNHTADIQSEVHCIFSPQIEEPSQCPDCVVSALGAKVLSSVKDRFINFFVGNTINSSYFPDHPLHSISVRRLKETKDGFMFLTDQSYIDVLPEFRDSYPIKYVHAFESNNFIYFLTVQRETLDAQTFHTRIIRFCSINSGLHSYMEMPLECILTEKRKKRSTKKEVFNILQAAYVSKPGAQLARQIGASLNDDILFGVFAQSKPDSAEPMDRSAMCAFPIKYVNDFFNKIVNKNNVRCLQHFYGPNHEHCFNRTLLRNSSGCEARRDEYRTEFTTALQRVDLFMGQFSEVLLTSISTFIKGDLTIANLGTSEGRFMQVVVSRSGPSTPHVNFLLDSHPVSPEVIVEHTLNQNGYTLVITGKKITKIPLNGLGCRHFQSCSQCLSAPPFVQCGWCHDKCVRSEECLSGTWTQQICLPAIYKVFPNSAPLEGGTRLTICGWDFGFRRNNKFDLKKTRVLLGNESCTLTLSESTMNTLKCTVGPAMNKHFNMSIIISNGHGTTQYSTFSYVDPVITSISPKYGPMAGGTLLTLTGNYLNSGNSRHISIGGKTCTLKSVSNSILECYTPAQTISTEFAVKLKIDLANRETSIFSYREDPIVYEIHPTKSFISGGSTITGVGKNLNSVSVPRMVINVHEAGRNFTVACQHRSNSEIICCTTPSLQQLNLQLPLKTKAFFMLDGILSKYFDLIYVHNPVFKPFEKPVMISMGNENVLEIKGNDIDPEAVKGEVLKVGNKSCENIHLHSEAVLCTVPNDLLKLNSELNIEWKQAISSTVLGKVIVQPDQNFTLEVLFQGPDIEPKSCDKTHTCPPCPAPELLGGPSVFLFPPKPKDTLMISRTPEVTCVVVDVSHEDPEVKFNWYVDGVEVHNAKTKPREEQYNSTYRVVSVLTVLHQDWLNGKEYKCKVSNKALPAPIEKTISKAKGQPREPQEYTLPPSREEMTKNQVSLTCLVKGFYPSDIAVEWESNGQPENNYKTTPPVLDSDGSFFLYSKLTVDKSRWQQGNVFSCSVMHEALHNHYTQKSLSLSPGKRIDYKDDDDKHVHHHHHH

Average A450 nm (Human c-Met-Flis-Fc ECD [1]): 4 A450 nm | Average A450 nm (RON-ECD-Fc [2]): 0.09 A450 nm | Average A450 nm (Human c-Met-Flis-Fc ECD [3]): 0.551 A450 nm | Average A450 nm (RON-ECD-Fc [4]): 0.087 A450 nm | Average A450 nm (Human c-Met-Flis-Fc ECD [5]): 0.322 A450 nm | Average A450 nm (RON-ECD-Fc [6]): 0.11 A450 nm | Average A450 nm (PlexinA2-ECD-Fc): 0.109 A450 nm
B1: C8-6 (antibody, human IgG2, kappa, V domains shown)
VH: QVQLVQSGAEVKKPGASVKVSCKASGYTFTDYYMHWVRQAPGQGLEWMGRVNPNRGGTTYNQKFEGRVTMTTDTSTSTAYMELRSLRSDDTAVYYCARTNWLDYWGQGTTVTVSS
VL: DIQMTQSPSSLSASVGDRVTITCSVSSSVSSIYLHWYQQKPGKAPKLLIYSTSNLASGVPSRFSGSGSGTDFTLTISSLQPEDFATYYCIQYSGYPLTFGGGTKVEIKR
notes: Called IgG4, kappa; also called Mab C8-6
